Laboratory results: paper PMC8566583
Values joined by “and” are separate entries in the source; they are usually repeats but may differ in a detail not shown here. Identical values can stand only once.

Tests used:
PARP2 (Homo sapiens) = PARP2 (Homo sapiens) (UniProt Q9UGN5); settings: cited from earlier work
PARP1 (Homo sapiens) = PARP1 (Homo sapiens) (UniProt P09874); settings: cited from earlier work
[1] = target: Recombinant wild-type murine PARP2 (murine) (UniProt O88554)
[2] = target: Recombinant wild-type human PARP1 (human) (UniProt P09874)

UniProt O88554, sequence (O88554 whole entry): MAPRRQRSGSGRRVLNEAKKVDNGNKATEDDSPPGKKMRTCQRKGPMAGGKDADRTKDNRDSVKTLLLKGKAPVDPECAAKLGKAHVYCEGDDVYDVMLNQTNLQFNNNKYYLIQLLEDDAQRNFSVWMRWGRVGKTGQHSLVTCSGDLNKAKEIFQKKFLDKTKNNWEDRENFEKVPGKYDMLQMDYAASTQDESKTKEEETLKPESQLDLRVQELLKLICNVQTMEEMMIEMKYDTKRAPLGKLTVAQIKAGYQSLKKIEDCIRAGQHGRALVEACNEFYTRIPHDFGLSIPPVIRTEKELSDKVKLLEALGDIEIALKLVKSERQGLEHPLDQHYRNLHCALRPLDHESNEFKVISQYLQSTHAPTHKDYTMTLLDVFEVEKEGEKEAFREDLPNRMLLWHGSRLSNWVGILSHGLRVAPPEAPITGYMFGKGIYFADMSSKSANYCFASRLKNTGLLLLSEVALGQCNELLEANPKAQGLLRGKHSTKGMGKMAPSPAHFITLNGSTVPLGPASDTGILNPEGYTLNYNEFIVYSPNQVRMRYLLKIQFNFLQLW
UniProt Q9UGN5, sequence (Q9UGN5 whole entry): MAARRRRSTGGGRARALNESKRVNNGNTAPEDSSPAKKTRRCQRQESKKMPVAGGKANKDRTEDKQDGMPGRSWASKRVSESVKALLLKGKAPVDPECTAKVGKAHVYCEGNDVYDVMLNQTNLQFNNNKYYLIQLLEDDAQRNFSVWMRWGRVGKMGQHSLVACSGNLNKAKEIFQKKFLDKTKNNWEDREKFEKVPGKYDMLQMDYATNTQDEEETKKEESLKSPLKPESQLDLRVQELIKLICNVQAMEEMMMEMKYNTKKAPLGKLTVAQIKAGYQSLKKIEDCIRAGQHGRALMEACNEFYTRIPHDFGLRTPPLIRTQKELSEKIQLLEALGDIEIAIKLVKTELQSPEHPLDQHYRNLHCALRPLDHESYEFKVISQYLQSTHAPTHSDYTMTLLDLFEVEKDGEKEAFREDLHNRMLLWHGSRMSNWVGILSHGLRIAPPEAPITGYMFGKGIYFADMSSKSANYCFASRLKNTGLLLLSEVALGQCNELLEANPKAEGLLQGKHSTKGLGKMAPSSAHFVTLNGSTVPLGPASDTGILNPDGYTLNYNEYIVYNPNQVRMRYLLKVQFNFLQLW

| Molecule | Kd (PARP2 (Homo sapiens)) [nM] | Kd (PARP1 (Homo sapiens)) | DNA-independent autoPARylation level of PARP2 (500 nM, 1 uM [32P]NAD+, no DNA or NCP) with HPF1 from 60 nM to 16 uM, relative to no HPF1; maximal effect (at a 4-fold excess of HPF1) [1] [fold] | DNA-independent autoPARylation level of PARP1 (500 nM, 1 uM [32P]NAD+, no DNA or NCP) with HPF1 from 60 nM to 16 uM, relative to no HPF1; maximal effect [2] [fold] |
| --- | --- | --- | --- | --- |
| HPF1 (from UniProt Q9NWY4) | 280 | > 3000 nM and 790 nM | – | – |
| histone PARylation factor 1 (HPF1), recombinant human (natural protein) MVGGGGKRRPGGEGPQCEKTTDVKKSKFCEADVSSDLRKEVENHYKLSLPEDFYHFWKFCEELDPEKPSDSLSASLGLQLVGPYDILAGKHKTKKKSTGLNFNLHWRFYYDPPEFQTIIIGDNKTQYHMGYFRDSPDEFPVYVGINEAKKNCIIVPNGDNVFAAVKLFLTKKLREITDKKKINLLKNIDEKLTEAARELGYSLEQRTVKMKQRDKKVVTKTFHGAGLVVPVDKNDVGYRELPETDADLKRICKTIVEAASDEERLKAFAPIQEMMTFVQFANDECDYGMGLELGMDLFCYGSHYFHKVAGQLLPLAYNLLKRNLFAEIIEEHLANRSQENIDQLAA | – | – | 2.4 | 1.6 |
